{"source": "paper PMC4766470", "key": {"[1]": {"target": "NTR1-Y06, expressed in Sf9 insect cells (rat) (UniProt P20789)", "test": "radioligand binding; saturation binding; diluted Sf9 membranes with [3H]-labelled ligand at 30-0.02 nM, 4 °C, 2 h, 50 mM Tris-HCl pH 7.4, 1 mM EDTA, 0.1% BSA; nonspecific binding with 1000-fold excess of unlabelled ligand; filtration; apparent constants"}, "[2]": {"target": "neurotensin receptor 1 (wild type), expressed in Sf9 insect cells (rat) (UniProt P20789)", "test": "radioligand binding; saturation binding; diluted Sf9 membranes with [3H]-labelled ligand at 30-0.02 nM, 4 °C, 2 h, 50 mM Tris-HCl pH 7.4, 1 mM EDTA, 0.1% BSA; nonspecific binding with 1000-fold excess of unlabelled ligand; filtration; apparent constants"}}, "note": "pKd: −log10 of the molar value."}
{"substance": "[3,11-tyrosyl-3,5-3H(N)]-neurotensin (peptide)", "values": [{"measurement": "pKd", "setting": "[1]", "value": 8.52}, {"measurement": "pKd", "setting": "[2]", "value": 8.52}]}
